Series [1] addresses gelatin.
The target of series [2] is T1, Z-Phe-Arg-MCA.
T1 chain: FR

Series [3] addresses T2, Gly-Asp-Asp-Asp-Asp-Lys-β-naphthylamide.
T2 chain: GDDDDK

The target in series [4] is recombinant fusion protein of Medaka gelatinase A.
Series [5] has as its target human single-chain tPA fusion protein with N-terminal His-tag/EP-cleavage site, P00750.
In series [6] the target is mouse laminin.
Series [7] deals with T3, human fibrinogen, P02671.
T3 chain 1: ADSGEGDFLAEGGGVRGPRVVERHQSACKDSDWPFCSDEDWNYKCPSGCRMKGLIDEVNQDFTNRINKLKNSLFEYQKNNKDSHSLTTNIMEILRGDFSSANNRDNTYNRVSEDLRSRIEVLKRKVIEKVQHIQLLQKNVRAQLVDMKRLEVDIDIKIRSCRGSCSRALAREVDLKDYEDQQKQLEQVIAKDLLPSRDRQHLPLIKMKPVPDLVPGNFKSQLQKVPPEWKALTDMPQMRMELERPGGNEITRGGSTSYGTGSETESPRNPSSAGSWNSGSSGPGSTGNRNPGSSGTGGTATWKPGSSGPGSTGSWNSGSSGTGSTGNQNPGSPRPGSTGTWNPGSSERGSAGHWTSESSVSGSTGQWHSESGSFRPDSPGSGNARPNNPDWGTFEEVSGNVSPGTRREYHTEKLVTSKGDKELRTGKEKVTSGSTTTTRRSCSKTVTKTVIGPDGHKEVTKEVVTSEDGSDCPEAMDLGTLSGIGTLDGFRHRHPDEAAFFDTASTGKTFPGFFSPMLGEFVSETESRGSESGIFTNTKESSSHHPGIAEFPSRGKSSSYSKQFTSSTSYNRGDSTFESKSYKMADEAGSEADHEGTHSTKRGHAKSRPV
T3 chain 2: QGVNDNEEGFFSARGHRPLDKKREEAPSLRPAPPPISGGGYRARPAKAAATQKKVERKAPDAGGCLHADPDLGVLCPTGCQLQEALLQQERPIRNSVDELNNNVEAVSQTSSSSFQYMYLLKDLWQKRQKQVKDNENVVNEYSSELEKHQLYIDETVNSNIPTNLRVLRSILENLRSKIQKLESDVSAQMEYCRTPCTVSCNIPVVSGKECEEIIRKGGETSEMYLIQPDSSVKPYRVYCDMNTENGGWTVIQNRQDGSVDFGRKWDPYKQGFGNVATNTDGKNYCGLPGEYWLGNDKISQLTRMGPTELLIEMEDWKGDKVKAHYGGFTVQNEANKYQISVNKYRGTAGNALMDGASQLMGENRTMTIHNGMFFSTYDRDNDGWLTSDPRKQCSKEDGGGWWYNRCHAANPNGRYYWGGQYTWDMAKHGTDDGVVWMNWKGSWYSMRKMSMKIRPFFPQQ
T3 chain 3: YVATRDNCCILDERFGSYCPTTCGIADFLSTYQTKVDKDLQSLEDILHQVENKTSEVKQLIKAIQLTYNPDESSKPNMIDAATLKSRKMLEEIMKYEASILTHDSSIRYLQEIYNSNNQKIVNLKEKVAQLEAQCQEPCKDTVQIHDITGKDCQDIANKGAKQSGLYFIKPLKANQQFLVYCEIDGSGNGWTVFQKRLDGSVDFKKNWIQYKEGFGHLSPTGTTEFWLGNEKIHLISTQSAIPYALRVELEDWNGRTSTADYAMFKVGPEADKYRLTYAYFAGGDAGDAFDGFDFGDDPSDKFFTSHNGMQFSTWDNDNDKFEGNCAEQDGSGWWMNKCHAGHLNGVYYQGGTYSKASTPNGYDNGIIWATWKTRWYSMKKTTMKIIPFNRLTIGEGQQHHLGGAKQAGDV

In series [8] the target is D4K-cleavage site-containing control protein (Novagen).
Series [9] has as its target T4, Pro-Phe-Arg-MCA.
T4 chain: PFR

The target in series [10] is Human plasma fibronectin, P02751.
Series [11] has as its target T5, human high-molecular-weight (HMW) kininogen, P01042.
T5 chain: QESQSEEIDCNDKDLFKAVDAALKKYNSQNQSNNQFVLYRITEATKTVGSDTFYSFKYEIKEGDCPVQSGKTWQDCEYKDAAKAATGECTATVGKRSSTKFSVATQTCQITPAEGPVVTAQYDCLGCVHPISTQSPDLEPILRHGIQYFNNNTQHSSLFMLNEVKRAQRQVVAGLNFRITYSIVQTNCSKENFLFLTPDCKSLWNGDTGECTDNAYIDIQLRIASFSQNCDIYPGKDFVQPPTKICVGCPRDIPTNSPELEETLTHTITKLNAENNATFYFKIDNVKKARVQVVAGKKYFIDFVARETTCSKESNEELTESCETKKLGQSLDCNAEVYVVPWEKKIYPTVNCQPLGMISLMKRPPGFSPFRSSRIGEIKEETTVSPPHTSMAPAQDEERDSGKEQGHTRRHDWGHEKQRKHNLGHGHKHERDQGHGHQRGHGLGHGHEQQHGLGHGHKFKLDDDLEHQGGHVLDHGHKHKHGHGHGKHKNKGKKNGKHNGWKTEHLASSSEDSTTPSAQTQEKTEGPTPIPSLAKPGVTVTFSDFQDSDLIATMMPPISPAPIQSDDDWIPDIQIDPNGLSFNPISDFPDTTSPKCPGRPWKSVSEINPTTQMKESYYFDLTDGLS

Series [12] has as its target T6, Boc-Glu(OBzl)-Ala-Arg-MCA.
T6 chain: EAR

human single-chain tPA fusion protein with N-terminal His-tag/EP-cleavage site, P00750, sequence (P00750 whole entry, looked up, the tested form may be a part): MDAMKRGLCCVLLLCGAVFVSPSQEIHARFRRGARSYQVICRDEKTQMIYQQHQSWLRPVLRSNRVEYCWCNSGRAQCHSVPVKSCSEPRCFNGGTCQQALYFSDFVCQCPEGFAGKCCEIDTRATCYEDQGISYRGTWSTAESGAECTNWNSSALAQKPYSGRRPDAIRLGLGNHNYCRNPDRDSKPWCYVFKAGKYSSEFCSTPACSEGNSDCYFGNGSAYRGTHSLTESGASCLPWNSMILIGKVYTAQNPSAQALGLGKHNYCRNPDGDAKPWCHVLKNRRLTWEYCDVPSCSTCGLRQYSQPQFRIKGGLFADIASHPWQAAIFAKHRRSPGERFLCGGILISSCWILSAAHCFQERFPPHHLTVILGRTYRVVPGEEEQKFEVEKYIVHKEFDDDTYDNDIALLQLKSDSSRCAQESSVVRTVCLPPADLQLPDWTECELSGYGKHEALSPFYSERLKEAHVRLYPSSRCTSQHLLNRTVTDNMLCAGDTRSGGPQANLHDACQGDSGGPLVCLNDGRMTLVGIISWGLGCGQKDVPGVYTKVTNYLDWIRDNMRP
Human plasma fibronectin, P02751, sequence (P02751 other isoform, or with tags, fused parts or gaps): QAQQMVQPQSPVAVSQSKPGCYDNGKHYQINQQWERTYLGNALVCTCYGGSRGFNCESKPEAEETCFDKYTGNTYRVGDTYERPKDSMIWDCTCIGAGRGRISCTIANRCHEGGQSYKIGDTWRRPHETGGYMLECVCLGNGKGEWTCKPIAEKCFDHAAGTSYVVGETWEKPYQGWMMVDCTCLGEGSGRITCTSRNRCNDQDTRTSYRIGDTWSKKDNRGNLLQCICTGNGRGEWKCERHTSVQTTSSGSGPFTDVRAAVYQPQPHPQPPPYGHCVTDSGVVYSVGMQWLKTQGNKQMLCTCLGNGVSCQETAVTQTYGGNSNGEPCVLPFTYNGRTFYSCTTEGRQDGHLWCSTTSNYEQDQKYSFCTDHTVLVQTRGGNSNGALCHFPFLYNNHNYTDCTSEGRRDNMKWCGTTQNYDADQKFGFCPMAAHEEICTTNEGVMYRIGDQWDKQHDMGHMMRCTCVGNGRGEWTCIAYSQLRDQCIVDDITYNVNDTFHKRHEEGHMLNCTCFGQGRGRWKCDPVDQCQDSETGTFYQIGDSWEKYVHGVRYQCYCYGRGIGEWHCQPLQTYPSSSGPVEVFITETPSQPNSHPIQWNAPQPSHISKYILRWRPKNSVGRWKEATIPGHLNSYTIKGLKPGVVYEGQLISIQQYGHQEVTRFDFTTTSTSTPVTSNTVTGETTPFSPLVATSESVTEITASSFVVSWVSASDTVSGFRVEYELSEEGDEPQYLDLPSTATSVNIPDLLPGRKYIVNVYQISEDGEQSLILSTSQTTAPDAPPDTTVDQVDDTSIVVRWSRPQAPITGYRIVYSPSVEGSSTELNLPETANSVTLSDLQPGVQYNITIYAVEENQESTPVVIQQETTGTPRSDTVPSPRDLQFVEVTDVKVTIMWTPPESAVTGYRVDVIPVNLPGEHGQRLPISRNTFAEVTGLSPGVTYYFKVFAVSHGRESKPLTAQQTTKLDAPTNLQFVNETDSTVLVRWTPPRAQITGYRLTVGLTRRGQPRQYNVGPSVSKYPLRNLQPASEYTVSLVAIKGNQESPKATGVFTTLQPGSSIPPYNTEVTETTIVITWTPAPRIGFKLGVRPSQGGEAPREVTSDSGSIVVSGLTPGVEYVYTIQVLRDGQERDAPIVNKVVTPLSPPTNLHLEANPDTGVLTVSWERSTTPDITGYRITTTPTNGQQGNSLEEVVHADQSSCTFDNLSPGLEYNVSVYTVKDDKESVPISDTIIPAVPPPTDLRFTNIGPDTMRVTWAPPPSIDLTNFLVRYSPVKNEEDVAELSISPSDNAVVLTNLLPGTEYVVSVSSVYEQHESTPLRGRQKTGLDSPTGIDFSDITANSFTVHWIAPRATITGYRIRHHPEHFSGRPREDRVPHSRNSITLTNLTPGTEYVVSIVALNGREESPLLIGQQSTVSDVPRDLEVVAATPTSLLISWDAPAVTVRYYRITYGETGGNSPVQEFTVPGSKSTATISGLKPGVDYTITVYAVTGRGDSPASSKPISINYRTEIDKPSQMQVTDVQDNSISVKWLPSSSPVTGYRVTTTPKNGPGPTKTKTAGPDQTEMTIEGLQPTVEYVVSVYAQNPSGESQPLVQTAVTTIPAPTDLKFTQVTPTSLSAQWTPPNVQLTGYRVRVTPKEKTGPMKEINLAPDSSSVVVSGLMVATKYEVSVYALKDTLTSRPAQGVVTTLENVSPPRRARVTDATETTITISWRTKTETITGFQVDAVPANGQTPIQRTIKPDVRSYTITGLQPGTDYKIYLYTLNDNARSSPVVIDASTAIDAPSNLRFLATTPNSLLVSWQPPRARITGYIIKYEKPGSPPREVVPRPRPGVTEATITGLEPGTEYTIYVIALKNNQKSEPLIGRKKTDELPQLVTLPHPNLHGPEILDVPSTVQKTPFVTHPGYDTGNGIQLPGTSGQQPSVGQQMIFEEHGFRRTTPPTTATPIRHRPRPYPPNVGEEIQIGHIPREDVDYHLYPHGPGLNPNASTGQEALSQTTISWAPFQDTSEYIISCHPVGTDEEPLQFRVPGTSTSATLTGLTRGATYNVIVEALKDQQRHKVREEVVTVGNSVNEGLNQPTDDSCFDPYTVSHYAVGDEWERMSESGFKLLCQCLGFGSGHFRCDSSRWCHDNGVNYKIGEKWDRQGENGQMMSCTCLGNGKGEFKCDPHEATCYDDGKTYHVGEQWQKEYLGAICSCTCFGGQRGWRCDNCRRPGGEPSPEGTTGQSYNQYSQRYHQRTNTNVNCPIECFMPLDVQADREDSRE

B1: Bovine EP serine protease (New England Biolabs) (protein)
chain: IVGGSDSREGAWPWVVALYFDDQQVCGASLVSRDWLVSAAHCVYGRNMEPSKWKAVLGLHMASNLTSPQIETRLIDQIVINPHYNKRRKNNDIAMMHLEMKVNYTDYIQPICLPEENQVFPPGRICSIAGWGALIYQGSTADVLQEADVPLLSNEKCQQQMPEYNITENMVCAGYEAGGVDSCQGDSGGPLMCQENNRWLLAGVTSFGYQCALPNRPGVYARVPRFTEWIQSFLH
For B1, in [1], the “proteolytic activity (gelatin zymography)” value is on record as “these substrates were detectably hydrolyzed by the mammalian proteases”. Moreover, the Km in series [2] turned out to be 400 µM; in [3] it was 500 µM; in series [9] it was 2900 µM; in series [12] it was 400 µM. In addition, the kcat in series [2] is 10 s⁻¹; in series [3], 25 s⁻¹; in series [9], 21.7 s⁻¹; in [12], 9.5 s⁻¹. Besides, the kcat/Km (mM^-1 · min^-1) in series [2] worked out at 1500; in series [3] it was 3000; in [9] it was 450; in series [12], 1400. The “cleavage of the fusion protein (SDS-PAGE)” value in [4] is on record as “the fusion protein was extensively digested by mammalian EP serine proteases”; in series [8], “the mammalian enzymes not only produced the two expected polypeptides but also further degraded the products”. Also, the “cleavage of the fusion protein (SDS-PAGE/Western blot)” value in series [5] is “but not with mammalian ones, showed two polypeptides (53- and 55-kDa)”. The “proteolytic activity (SDS-PAGE)” value in series [6] and in series [10] was “these substrates were detectably hydrolyzed by the mammalian proteases” throughout. Further, the “nonspecific proteolytic activity (SDS-PAGE)” value in series [7] and in series [11] was “both of which were degraded noticeably by mammalian EP proteases” throughout.

B2: Bovine EP serine protease (Novagen) (protein)
chain: B1 chain
On to B2, for which, in series [1], the “proteolytic activity (gelatin zymography)” value is “these substrates were detectably hydrolyzed by the mammalian proteases”. In addition, the Km in series [2] came to 500 µM; in series [3], 800 µM; in series [9], 4000 µM; in [12] it was 500 µM. The kcat was found to be 12 s⁻¹ in series [2], 12.8 s⁻¹ in [3], 13.2 s⁻¹ in [9] and 12.3 s⁻¹ in series [12]. Moreover, the kcat/Km (mM^-1 · min^-1) was found to be 1400 in series [2], 960 in series [3], 200 in series [9] and 1500 in [12]. The “cleavage of the fusion protein (SDS-PAGE)” value in [4] was “the fusion protein was extensively digested by mammalian EP serine proteases”; in series [8] it was “the mammalian enzymes not only produced the two expected polypeptides but also further degraded the products”. In addition, in series [5], the “cleavage of the fusion protein (SDS-PAGE/Western blot)” value was “but not with mammalian ones, showed two polypeptides (53- and 55-kDa)”. In addition, the “proteolytic activity (SDS-PAGE)” value in [6] and in series [10] was “these substrates were detectably hydrolyzed by the mammalian proteases” throughout. Further, the “nonspecific proteolytic activity (SDS-PAGE)” value in series [7] and in [11] was “both of which were degraded noticeably by mammalian EP proteases” throughout.

These data come from patent US20080213836.
